Test results taken from patent publication US20080044360A1.
Bridge positions count the residues as written; N and C are the ends. Square brackets hold non-standard residues; d marks the D form. Primed or numbered codes have the meaning given here. Ends that are not written are not given here. * marks the point of attachment. GdDTPA‑thiourea = GdT is GdDTPA-thiourea (Gd-DTPA chelate attached through a thiourea); Phe(3,4-(OMe)2) = COc1ccc(C[C@H](N)C(=O)O)cc1OC; dBip = N[C@H](Cc1ccc(-c2ccccc2)cc1)C(=O)O; Phe(4-CN) = N#Cc1ccc(C[C@H](N)C(=O)O)cc1; Orn = NCCC[C@H](N)C(=O)O; Gd^T″ = GdDTPA-thiourea; Cbz = O=C(OCc1ccccc1)*; Dap = NC[C@H](N)C(=O)O; GdT = GdDTPA-thiourea

B1: SEQ ID NO 173 (peptide)
peptide: QWTCSGDEYT[dW]HCNYE
modifications: disulfide 4-13 (inferred); not fully specified (N-terminus); printed as QWTCSGDEYTwHCNYE
B2: Compound ID 903 (peptide)
peptide: GdT-GQWHCTTRFPHH[dBip]CLYG
modifications: disulfide 5-14 (inferred); not fully specified (C-terminus); also: gadolinium complex (GdDTPA)
B3: SEQ ID NO 165 (peptide)
peptide: Q[dW]TCSGDEYTWHCNYE
modifications: disulfide 4-13 (inferred); not fully specified (N-terminus, C-terminus); printed as QwTCSGDEYTWHCNYE
B4: SEQ ID NO 176 (peptide)
peptide: QWTCSGDEYTWHC[dN]YE
modifications: disulfide 4-13 (inferred); not fully specified (N-terminus); printed as QWTCSGDEYTWHCnYE
B5: SEQ ID NO 168 (peptide)
peptide: QWTC[dS]GDEYTWHCNYE
modifications: disulfide 4-13 (inferred); not fully specified (N-terminus); printed as QWTCsGDEYTWHCNYE
B6: SEQ ID NO 175 (peptide)
peptide: QWTCSGDEYTWH[dC]NYE
modifications: disulfide 4-13 (inferred); not fully specified (N-terminus); printed as QWTCSGDEYTWHcNYE
B7: SEQ ID NO 166 (peptide)
peptide: QW[dT]CSGDEYTWHCNYE
modifications: disulfide 4-13 (inferred); not fully specified (N-terminus, C-terminus); printed as QWtCSGDEYTWHCNYE

Experiments:
[1] = biological target: human collagen type I, acid soluble, extracted from placenta (Sigma C7774) (human) (UniProt P02452); test: dried collagen assay
human collagen type I, acid soluble, extracted from placenta (Sigma C7774) (human), sequence (P02452 162-1218 limits assumed, chain 1 of 2): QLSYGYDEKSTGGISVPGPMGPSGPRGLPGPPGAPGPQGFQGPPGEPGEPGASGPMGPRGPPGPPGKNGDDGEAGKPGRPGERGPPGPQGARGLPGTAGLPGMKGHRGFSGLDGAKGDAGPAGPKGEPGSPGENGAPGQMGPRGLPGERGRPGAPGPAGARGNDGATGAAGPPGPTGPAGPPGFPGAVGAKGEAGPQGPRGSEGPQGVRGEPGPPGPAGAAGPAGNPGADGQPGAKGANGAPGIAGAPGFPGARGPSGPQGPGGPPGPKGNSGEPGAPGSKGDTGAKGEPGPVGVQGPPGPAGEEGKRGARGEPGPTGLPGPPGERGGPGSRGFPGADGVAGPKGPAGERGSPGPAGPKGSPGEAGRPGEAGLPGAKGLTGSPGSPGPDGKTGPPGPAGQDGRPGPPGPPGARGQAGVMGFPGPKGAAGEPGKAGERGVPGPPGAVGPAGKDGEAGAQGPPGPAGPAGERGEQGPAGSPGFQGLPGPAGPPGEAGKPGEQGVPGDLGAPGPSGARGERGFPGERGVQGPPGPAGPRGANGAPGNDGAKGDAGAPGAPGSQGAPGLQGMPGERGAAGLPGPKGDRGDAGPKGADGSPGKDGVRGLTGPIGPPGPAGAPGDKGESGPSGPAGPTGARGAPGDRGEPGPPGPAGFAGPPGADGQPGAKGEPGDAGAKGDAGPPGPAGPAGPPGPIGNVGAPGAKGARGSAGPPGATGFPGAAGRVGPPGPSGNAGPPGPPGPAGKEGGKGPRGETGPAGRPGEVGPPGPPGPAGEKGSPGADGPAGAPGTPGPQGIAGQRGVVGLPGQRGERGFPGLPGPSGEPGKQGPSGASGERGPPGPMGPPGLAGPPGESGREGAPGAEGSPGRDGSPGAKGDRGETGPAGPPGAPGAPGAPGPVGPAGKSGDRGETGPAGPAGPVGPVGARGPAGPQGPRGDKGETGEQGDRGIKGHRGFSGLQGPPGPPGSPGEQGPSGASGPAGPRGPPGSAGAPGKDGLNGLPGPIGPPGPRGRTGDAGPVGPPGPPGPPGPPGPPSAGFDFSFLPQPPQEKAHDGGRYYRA
human collagen type I, acid soluble, extracted from placenta (Sigma C7774) (human), sequence (P08123 80-1119 limits assumed, chain 2 of 2, further chain): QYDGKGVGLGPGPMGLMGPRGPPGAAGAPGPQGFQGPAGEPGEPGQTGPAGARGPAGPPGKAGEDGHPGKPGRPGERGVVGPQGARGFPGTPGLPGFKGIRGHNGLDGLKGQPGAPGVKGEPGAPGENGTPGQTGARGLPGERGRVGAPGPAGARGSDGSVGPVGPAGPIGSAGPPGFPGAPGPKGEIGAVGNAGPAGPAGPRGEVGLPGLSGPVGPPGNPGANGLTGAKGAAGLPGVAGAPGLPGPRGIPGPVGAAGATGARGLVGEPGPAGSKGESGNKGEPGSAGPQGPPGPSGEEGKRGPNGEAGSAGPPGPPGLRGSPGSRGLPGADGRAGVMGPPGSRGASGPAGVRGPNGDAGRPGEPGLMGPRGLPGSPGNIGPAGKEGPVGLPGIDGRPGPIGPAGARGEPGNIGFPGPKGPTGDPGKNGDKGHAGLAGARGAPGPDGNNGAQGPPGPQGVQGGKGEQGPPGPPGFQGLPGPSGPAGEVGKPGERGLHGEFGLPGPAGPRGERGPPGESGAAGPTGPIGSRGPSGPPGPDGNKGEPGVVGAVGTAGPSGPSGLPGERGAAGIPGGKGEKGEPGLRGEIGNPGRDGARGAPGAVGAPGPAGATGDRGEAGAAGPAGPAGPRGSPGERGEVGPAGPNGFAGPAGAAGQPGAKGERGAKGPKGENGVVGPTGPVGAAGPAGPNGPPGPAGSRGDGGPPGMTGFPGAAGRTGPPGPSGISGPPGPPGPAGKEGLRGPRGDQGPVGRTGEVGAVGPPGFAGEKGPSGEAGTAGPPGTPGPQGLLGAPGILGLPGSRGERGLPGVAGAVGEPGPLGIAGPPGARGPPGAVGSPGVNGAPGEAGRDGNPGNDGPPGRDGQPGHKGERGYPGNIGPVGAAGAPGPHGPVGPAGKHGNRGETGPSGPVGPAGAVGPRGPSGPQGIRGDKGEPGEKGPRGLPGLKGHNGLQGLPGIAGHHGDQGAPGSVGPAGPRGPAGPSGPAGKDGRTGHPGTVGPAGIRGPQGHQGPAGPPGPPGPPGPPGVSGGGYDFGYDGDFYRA

[2] = biological target: rat collagen, acid soluble, type I, rat tail (Upstate 08-115) (rat) (UniProt P02454); test: dried collagen assay
rat collagen, acid soluble, type I, rat tail (Upstate 08-115) (rat), sequence (P02454 152-1207, chain 1 of 2): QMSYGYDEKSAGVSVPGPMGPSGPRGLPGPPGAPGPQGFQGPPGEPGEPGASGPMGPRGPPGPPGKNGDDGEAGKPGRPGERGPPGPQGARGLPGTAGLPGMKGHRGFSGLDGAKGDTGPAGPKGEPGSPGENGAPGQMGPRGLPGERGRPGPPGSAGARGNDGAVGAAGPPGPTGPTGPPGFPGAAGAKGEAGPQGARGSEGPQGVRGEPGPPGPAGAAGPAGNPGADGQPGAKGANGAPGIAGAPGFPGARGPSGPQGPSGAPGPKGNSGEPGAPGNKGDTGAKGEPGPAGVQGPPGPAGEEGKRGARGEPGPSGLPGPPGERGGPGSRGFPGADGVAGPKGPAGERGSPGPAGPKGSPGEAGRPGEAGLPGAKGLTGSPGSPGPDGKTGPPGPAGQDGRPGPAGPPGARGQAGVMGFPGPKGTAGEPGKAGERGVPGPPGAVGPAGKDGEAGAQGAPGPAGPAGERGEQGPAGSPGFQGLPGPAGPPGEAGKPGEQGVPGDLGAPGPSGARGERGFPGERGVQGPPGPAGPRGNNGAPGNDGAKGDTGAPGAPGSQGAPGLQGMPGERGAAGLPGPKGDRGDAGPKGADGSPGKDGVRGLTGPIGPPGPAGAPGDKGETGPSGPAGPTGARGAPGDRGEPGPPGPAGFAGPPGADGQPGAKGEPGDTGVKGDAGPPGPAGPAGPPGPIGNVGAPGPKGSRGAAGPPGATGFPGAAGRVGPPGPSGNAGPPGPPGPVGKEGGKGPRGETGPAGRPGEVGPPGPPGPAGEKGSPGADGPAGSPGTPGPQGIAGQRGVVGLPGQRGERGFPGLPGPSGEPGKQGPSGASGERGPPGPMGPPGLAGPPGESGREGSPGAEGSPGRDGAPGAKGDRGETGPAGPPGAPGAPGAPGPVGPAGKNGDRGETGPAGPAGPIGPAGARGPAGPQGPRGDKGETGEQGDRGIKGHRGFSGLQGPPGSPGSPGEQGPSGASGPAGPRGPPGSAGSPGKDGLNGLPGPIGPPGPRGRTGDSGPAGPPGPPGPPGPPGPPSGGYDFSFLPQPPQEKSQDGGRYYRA
rat collagen, acid soluble, type I, rat tail (Upstate 08-115) (rat), sequence (P02466 86-1125, chain 2 of 2, further chain): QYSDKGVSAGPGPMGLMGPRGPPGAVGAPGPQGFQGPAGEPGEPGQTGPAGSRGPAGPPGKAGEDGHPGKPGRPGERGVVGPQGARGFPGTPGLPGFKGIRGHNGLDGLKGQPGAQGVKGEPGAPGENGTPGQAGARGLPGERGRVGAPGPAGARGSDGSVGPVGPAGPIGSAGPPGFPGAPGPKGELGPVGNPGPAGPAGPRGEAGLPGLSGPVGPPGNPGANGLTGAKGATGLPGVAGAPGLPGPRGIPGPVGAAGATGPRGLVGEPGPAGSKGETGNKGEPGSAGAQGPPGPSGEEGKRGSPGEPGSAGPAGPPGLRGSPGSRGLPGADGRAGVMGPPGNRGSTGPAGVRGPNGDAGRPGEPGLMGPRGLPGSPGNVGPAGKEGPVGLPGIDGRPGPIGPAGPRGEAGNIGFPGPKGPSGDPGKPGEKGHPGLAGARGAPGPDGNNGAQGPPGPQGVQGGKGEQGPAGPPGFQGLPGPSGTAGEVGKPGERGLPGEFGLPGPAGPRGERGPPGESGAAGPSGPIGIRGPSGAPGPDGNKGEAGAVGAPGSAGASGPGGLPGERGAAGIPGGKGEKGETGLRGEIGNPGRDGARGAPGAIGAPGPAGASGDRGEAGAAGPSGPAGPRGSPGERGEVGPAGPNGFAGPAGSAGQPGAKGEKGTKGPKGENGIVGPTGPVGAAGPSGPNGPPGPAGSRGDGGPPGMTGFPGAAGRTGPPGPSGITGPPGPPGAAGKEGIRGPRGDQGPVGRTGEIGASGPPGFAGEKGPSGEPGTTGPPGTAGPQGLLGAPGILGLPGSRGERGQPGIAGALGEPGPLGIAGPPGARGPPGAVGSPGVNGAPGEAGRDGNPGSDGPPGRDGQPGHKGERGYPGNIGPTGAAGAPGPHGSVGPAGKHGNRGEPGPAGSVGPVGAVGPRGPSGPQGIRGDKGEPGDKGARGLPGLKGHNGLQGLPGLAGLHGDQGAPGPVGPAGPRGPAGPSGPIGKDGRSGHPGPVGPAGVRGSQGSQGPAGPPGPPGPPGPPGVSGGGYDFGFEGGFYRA

Row | Binder | % bound [1] [%] | % bound [2] [%]
1 | B1 | 5 | 4
2 | Cbz-GQWHCT[Dap](GdDTPA‑thiourea)RFPHHYCLYG (disulfide 5-14 (inferred); also: gadolinium complex (GdDTPA)) [Compound ID 939] | 4 | 5
3 | {Gd^T″}-GQWHCTTRFPHH[dF]CLYG (disulfide 5-14 (inferred); not fully specified (C-terminus)) [Compound ID 901] | 2 | 2
4 | B2 | 3 | 5
5 | {Gd^T″}-GQWHCTTD[Phe(4-CN)]PHHYCLYG (disulfide 5-14 (inferred)) [Compound ID 883] | 8 | 2
6 | B3 | 2 | 4
7 | {Gd^T″}-GQWHCTTD[Phe(3,4-(OMe)2)]PHHYCLYG (disulfide 5-14 (inferred)) [Compound ID 893] | 4 | 2
8 | B4 | 2 | 2
9 | B5 | 3 | 2
10 | Cbz-GQWHCT[Orn](GdDTPA‑thiourea)RFPHHYCLYG (disulfide 5-14 (inferred); also: gadolinium complex (GdDTPA)) [Compound ID 941] | 8 | 5
11 | B6 | 2 | 2
12 | [dY][dH][dA][dC][dY][dQ][dA]G[dC][dW][dI][dW] (disulfide 4-9 (inferred); not fully specified (C-terminus)) [SEQ ID NO 163] | 37 | 53
13 | {Gd^T″}-GQWHCTTLFPHH[dY]CLYG (disulfide 5-14 (inferred); not fully specified (C-terminus)) [Compound ID 907] | 6 | 1
14 | B7 | 2 | 3
15 | {Gd^T″}-GQWHCTTRFPHAYCLYG (disulfide 5-14 (inferred)) [Compound ID 878] | 8 | 9
